Consider nine molecules from US20150086553A1 (SAMSUNG ELECTRONICS, published 2015).

Assay [1] addresses T1, Annexin A1 N-terminal peptide (30 amino acids, biotin conjugated) (biotin conjugated form (position not given)).
T1 construct: Synthetic peptide, captured on streptavidin-coated plates for ELISA; also called N-terminal region of Annexin A1; Annexin A1 N-terminus
T1 peptide: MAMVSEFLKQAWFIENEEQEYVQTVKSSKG
In words: scFv selected by ELISA on biotinylated N-terminal peptide on streptavidin plates, anti-HA-HRP detection. In general terms: An ELISA detects its analyte on a solid surface through an enzyme-linked reagent.

In assay [2] the target is T2, Annexin A1 on cancer cells (SNU1, MDA-MB-231) (UniProt P04083 2-346, limits assumed).
T2 construct: whole, on cells; Endogenous protein of cancer cell lines said to overexpress Annexin A1; Assay buffer was HBSS(+) with Ca2+ and Mg2+; also called Annexin A1 on cancer cell surfaces; extracellular portion of Annexin A1 in cancer cells
T2 sequence (looked up): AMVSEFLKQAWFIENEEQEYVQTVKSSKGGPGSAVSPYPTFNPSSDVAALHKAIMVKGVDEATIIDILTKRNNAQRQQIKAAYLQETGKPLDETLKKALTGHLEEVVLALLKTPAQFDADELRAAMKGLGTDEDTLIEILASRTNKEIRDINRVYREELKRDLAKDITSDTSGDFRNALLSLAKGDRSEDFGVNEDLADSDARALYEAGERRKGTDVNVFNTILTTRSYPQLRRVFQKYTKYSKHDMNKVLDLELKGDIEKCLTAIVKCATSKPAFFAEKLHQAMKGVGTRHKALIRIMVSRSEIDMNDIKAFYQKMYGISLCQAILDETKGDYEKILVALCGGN
In words: cell-based ELISA on SNU1 and MDA-MB-231 cells, 250/125/25 ng scFv per well, anti-HA-HRP. The protocol: The selected Annexin A1-binding scFv was analyzed for binding specificity by cell-based ELISA using the cancer cells SNU1 and MDA-MB-231 in which Annexin A1 is overexpressed.
Briefly, after SNU1 (ATCC) and MDA-MB-231 (ATCC) cancer cells were maintained at 37° C. in RPMI-1640 and DMEM, respectively, under a supply of 5% CO₂, they were seeded at a density of 5×10⁵ cells into 96-well plates (NUNC). Purified proteins from the selected scFv (N32, N33, N43, N46, N48, N314, N36, F2, F4, F5, F6, F8, F10) were added in an amount of 250 ng, 125 ng, or 25 ng to each well, incubated at 4° C. for 90 min, and washed twice with HBSS (+) buffer (Gibco, 14025-092; HBSS containing Ca²⁺ and Mg²⁺; calcium chloride (CaCl₂) 12.6 mM, magnesium chloride 4.9 mM, and magnesium sulfate 4 mM). Thereafter, a 1/200 dilution of an anti-HA-HRP secondary antibody (Santa Cruz), configured to detect an HA tag conjugated to an scFv terminus, was added to in an amount of 50 ul to each well, and incubated for 1 hr. A color was developed for 10 min with the addition of 150 ul of the Super AquaBlue ELISA substrate solution (eBioScience) for the HRP of the secondary antibody. Absorbance was read at 405 nm to determine the binding of scFv to the Annexin A1 on cancer cells.

Assay [3] deals with T3, full-length Annexin A1 protein (346 amino acids; Accession No. NP-000691.1) (human, UniProt P04083 1-346).
T3 construct: Biotinylated for biopanning; coated at 4 ug per well for ELISA
T3 sequence: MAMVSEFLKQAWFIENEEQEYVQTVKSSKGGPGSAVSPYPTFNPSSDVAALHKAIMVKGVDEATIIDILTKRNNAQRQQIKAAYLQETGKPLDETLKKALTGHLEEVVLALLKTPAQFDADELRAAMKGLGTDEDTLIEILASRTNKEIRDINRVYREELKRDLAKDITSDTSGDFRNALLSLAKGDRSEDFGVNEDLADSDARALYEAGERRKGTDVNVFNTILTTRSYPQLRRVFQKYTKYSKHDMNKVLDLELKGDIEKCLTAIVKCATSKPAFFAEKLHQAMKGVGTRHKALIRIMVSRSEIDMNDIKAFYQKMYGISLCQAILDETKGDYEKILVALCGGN
The assay can be described thus: scFv selected by ELISA on plate-coated full-length Annexin A1, anti-HA-HRP detection.

Assay [4] has as its target T1, Annexin A1 N-terminal peptide (30 amino …). In words: scFv selected by ELISA on biotinylated N-terminal peptide.

B1: scFv N32 (scFv)
scFv: EVQLLESGGGLVQPGGSLRLSCAASGFTFSNYAMSWVRQAPGKGLEWVSGIYPNSGSNTYYADSVKGRFTISRDNSKNTLYLQMNSLRAEDTAVYYCARRPTLFDYWGQGTLVTVGSGGGGSGGGGSGGGGSQSVLTQPPSASGTPGQRVTISCTGSSSNIGSNSVNWYQQLPGTAPKLLIYSDSHRPSGVPDRFSGSKSGTSASLAISGLQSEDEADYYCATWDDSLNGYVFGGGTKLTVLG
notes: also called clone C9
Consider B1, for which the binding result in assay [1] and in assay [2] was “binds” each time.

B2: scFv F6 (scFv)
scFv: EVQLLESGGGLVQPGGSLRLSCAASGFTFSNYAMSWVRQAPGKGLEWVSSISSNSGNKYYADSVKGRFTISRDNSKNTLYLQMNSLRAEDTAVYYCAKATLGMDHIHAYSAYGMDVWGQGTLVTVSSGGGGSGGGGSGGGGSQSVLTQPPSASGTPGQRATISCTGSSSNIGSNSVSWYQQLPGTAPKLLIYANSNRPSGVPDRFSGSKSGTSASLAISGLRSEDEADYYCAAWDDSLNAYVFGGGTKLTVLG
notes: also called clone C5
As for B2, the binding result in assay [2] and in assay [3] was “binds” each time.

B3: scFv F8 (scFv)
scFv: EVQLLESGGGLVQPGGSLRLSCAASGFTFSSYSMSWVRQAPGKGLEWVSGISPGSGSIYYADSVKGRFTISRDNSKNTLYLQMNSLRAEDTAVYYCARRIHPFDYWGQGTLVAVSSGGGGSGGGGSGGGGSQSVLTQPPSASGTPGQRVTISCTGSSSNIGNNDVSWYQQLPGTAPKLLIYSDNQRPSGVPGRFSGSKSGTSASLAISGLRSEDEADYYCGAWDSSLNAYVFGGGTKLTVLG
notes: also called clone G3
For B3, the binding result in assay [2] and in assay [3] was “binds” in each case.

B4: scFv F4 (scFv)
scFv: EVQLLESGGGLVQPGGSLRLSCAASGFTFSGYYMSWVRQAPGKGLEWVSSISPSGSSIYYADSVKGRFTISRDNSKNTLYLQMNSLRAEDTAVYYCAKGSPGFDYWGQGTLVTVSSGGGGSGGGGSGGGGSQSVLTQPPSASGAPGQRVTISCSGSSFNIGSNDVSWYQQLPGTAPKLLIYSDSHRPSGVPDRFSGSKSGTSASLAISGLQSEDEADYYCGSWDYSLSAYVFGGGTKLTVLG
Regarding B4, the binding result in assay [2] and in assay [3] was “binds” each time.

B5: scFv N43 (scFv)
scFv: EVQLLESGGGLVQPGGSLRLSCAASGFTFSDYSMGWVRQAPGRGLEWVSGIYPSGGNTYYADSVKGRFTISRDNSKNTLYLQMNSLRAEDTAVYYCAKRPSRFDYWGQGTLVAVSSGGGGSGGGGSGGGGSQSVLTQPPSASGTPGQRVTISCTGSSSNIGNNDVNWYQQLPGTAPKLLIYSNSHRPSGVPDRFSGSKSGTSASLAISGLRSEDEADYYCGTWDDSLNGYVFGGGTKLTVLG
For B5, the binding result in assay [1] and in assay [2] was “binds” throughout.

B6: scFv F10 (scFv)
scFv: EVQLLESGGGLVQPGGSLRLSCAASGFTFSDYSMSWVRQAPGKGLEWVSVISPDSSNTYYADSVKGRFTISRDNSKNTLYLQMNSLRAEDTAVYYCAKVTGTCGPRSCYYYDAMDVWGQGTLVTVSSGGGGSGGGGSGGGGSQSVLTQPPSASGTPGQRVTISCSGSSSNIGSNAVSWYQQLPGTAPKLLIYYNSHRPSGVPDRFSGPKSGTSASLAISGLRSEDEADYYCATWDSSLNGYVFGGGTKLTVLG
With B6, the binding result in assay [2] and in assay [3] was “binds” each time.

B7: scFv N34 (scFv)
scFv: EVQLLESGGGLVQPGGSLRLSCAASGFTFSNYAMSWVRQAPGKGLEWVSAIYPGGGSIYYADSVKGRFTISRDNSKNTLYLQMNSLRAEDTAVYYCARRLQIFDYWGQGTLVTVSSGGGGSGGGGSGGGGSQSVLTQPPSASGTPGQRVTISCTGSSSNIGSNNVTWYQQLPGTAPKLLIYSDSHRPSGVPDRFSGSKSGTSASLAISGLQSEDEADYYCGSWDYSLSAYVFGGGTKLTVLG
notes: also called clone C11
Take B7: the binding result in assay [4] is on record as “binds”.

B8: scFv N314 (scFv)
scFv: EVQLLESGGGLVQPGGSLRLSCAASGFTFGGYAMSWVRQAPGKGLEWVSGIYPGGGSTYYADSVKGRFTISRDNSKNTLYLQMNSLRAEDTAVYYCARRLTIFDYWGQGTLVTVSSGGGGSGGGGSGGGGSQSVLTQPPSASGTPGQRVTISCSGSSSNIGNNDVTWYQQLPGTAPKLLIYSDSHRPSGVPDRFSGSKSGTSASLAISGLRSEDEADYYCGTWDDSLSGYVFGGGTKLTVLG
notes: also called clone G11
For B8, the binding result in assay [1] and in assay [2] was “binds” in each case.

B9: scFv F5 (scFv)
scFv: EVQLLESGGGLVQPGGSLRLSCAASGFTFSDYAMSWVRQAPGKGLEWVSGISYGGGNTYYADSVKGRFTISRDNSKNTLYLQMNSLRAEDTAVYYCAKRLGSFDYWGQGTLVTVSSGGGGSGGGGSGGGGSQSVLTQPPSASGTPGRRVTISCTGTSSNIGSNYVSWYRQLPGTAPKLLIYAGNHRPSGVPDRFSGSKSGTSASLAISGLRSEDEADYYCGSWDSSLSAYVFGGGTKLTVLG
notes: also called clone B5
For B9, the binding result in assay [2] and in assay [3] was “binds” in each case.
